Results reported in paper PMC2824011.

Substrate: O=c1ccc2nc3ccc(O[C@H]4O[C@H](CO)[C@@H](O)[C@H](O)[C@@H]4O)cc3oc-2c1
Experiment: continuous fluorometric kinetic assay of purified enzyme
Type: biochemical, Drosophila melanogaster

B1: Golgi α-mannosidase II (dGMII) (Drosophila melanogaster) (protein)
chain: DDPIRPPLKVARSPRPGQCQDVVQDVPNVDVQMLELYDRMSFKDIDGGVWKQGWNIKYDPLKYNAHHKLKVFVVPHSHNDPGWIQTFEEYYQHDTKHILSNALRHLHDNPEMKFIWAEISYFARFYHDLGENKKLQMKSIVKNGQLEFVTGGWVMPDEANSHWRNVLLQLTEGQTWLKQFMNVTPTASWAIDPFGHSPTMPYILQKSGFKNMLIQRTHYSVKKELAQQRQLEFLWRQIWDNKGDTALFTHMMPFYSYDIPHTCGPDPKVCCQFDFKRMGSFGLSCPWKVPPRTISDQNVAARSDLLVDQWKKKAELYRTNVLLIPLGDDFRFKQNTEWDVQRVNYERLFEHINSQAHFNVQAQFGTLQEYFDAVHQAERAGQAEFPTLSGDFFTYADRSDNYWSGYYTSRPYHKRMDRVLMHYVRAAEMLSAWHSWDGMARIEERLEQARRELSLFQHHDGITGTAKTHVVVDYEQRMQEALKACQMVMQQSVYRLLTKPSIYSPDFSFSYFTLDDSRWPGSGVEDSRTTIILGEDILPSKHVVMHNTLPHWREQLVDFYVSSPFVSVTDLANNPVEAQVSPVWSWHHDTLTKTIHPQGSTTKYRIIFKARVPPMGLATYVLTISDSKPEHTSYASNLLLRKNPTSLPLGQYPEDVKFGDPREISLRVGNGPTLAFSEQGLLKSIQLTQDSPHVPVHFKFLKYGVRSHGDRSGAYLFLPNGPASPVELGQPVVLVTKGKLESSVSVGLPSVVHQTIMRGGAPEIRNLVDIGSLDNTEIVMRLETHIDSGDIFYTDLNGLQFIKRRRLDKLPLQANYYPIPSGMFIEDANTRLTLLTGQPLGGSSLASGELEIMQDRRLASDDERGLGQGVLDNKPVLHIYRLVLEKVNNCVRPSELHPAGYLTSAAHKASQSLLDPLDKFIFAENEWIGAQGQFGGDHPSAREDLDVSVMRRLTKSSAKTQRVGYVLHRTNLMQCGTPEEHTQKLDVCHLLPNVARCERTTLTFLQNLEHLDGMVAPEVCPMETAAYVSSHSS
- Km: 200 (±73) μM
